# Results published in patent publication US8530235B2, “Medium that supports culture of an oocyte and modulation of granulosa cell apoptosis” (Adelaide Research & Innovation Pty Ltd., priority 2005, dated 2013).
# Legend:
# [1] = system: cumulus cells; assay: Cumulus cell apoptosis in oocytectomized complexes (OOX) and COC, TUNEL with confocal microscopy; format: cell-based, Bovine; conditions: for effect on incidence of cumulus cell apoptosis: OOX cultured with increasing doses (GDF-9 0-175 ng/ml, BMP-6 0-100 ng/ml, BMP-15 0-20% v/v, 5-50 DO), presence or absence of FSH
# Procedure: Bovine ovaries were collected from local abattoir and transported to the laboratory in warm saline (30-35° C.). Cumulus-oocyte complexes (COC) were aspirated from antral follicles (2- to 8-mm diameter) using an 18-gauge needle and a 10-ml syringe containing ˜2 ml aspiration media (Hepes-buffered Tissue Cultured Medium-199: TCM-199, ICN Biochemicals, Irvine, Calif., USA) supplemented with 50 μg/ml kanamycin (Sigma-Aldrish, St. louis, Mo.), 4 mg/ml fatty acid-free bovine serum albumin (FAF-BSA) (ICPbio ltd, Auckland, NZ). Intact COC with compact cumulus vestment greater than five cell layers and evenly pigmented cytoplasm were selected under a dissecting microscope and washed twice in Hepes-buffered TCM-199 and once in corresponding culturing media.
# The cytoplasm of each oocyte was microsurgically removed from the COC (oocytectomy) using a micromanipulator as described in Buccione et al (Buccione et al. (1990) Dev Biol 138, 16-25.). The resulting oocytectomized complex (OOX) consists of a hollow zona pellucida surrounded by several layers of intact CC.
# Denuded oocytes (DO) were generated by removing CC from COC by vortexing for approximately 4 minutes in 2 ml H-TCM-199/BSA. Any remaining CC were removed by repeated passage of the oocytes through a fine-bore fire-polished glass pipette in H-TCM-199/BSA.
# CC apoptoic DNA was detected using TUNEl (Roche Diagnostic, Penzberg, Germany) according to the manufacturer's instructions. Briefly, following culture COC and OOX complexes were washed twice in PBS (pH 7.4) containing 1% BSA, fixed in 4% paraformaldehyde in PBS (pH 7.4) overnight at 4° C. and washed twice with PBS/BSA before placing on Cell-Tak-coated coverslips (Beckton Dickinson Biosciences, Franklin lakes, N.J.). Complexes were then permeabilized in 0.11/u Triton X-100 in 0.1% sodium citrate for 1 hour at room temperature and washed 3 times in PBS/BSA. The complexes were then incubated in fluorescein-conjugated dUTP and terminal deoxynucleotide transferase (TUNEl reagents, Roche) for 1 hour at 37° C. in the dark. Positive controls were incubated in DNAse 1 (0.005 U/µl), which cleaves all DNA, for 20 minutes at room temperature and washed twice in PBS/BSA before TUNEl. Negative controls were incubated in fluorescein-dUTP in the absence of TdT. After TUNEl, complexes were washed twice in PBS/BSA and counterstained with propidium iodide 0.5 μg/ml (PI) plus RNase A (0.1 mg/ml) for 1 hour at room temperature in the dark to label all nuclei. Complexes were then washed twice in PBS/BSA and mounted with slight coverslip compression in VectaShield anti-bleaching solution (Vector labs, Burlingame, Calif.), and stored in the dark at 4° C. for confocal analysis.
# Apoptosis in COC and OOX was visualised and quantified using confocal microscopy. Dual fluorescence emission from CC was detected using a Nikon C1 Confocal Scanning Head and a Nikon TE2000E microscope (Nikon, Tokyo, Japan). Simultaneous emission capture of the apoptotic signal (fluorescein, lacer excitation 488 nm, emission 510-530 nm) and the nuclear signal (propidium iodide, excitation lacer 532, emission 590-640 nm) was performed.
# In order to generate an accurate representation of the overall apoptotic incidence for all complexes, the depth of each complex was measured through a Z series to divide the construct into three percentiles (optical Z plane sections) at 25%, 50% and 75%. These optical section images were acquired and saved as independent colour channels (green, apoptotic cumulus fluorescence and red, nuclear cumulus fluorescence). The captured images were then processed in Scanalytics IPlab software Version 3.6. (Scanalytics, Fairfax, Va.). Quantification of CC number (for each colour channel) was independently measured using a macro script utilizing an auto segmentation filter for each optical section percentile (3 optical “z”-plane sections for each complex).
# [2] = system: Bcl-2 and Bax proteins; assay: Western blot of Bcl-2 and Bax expression in OOX cumulus cells; format: cell-based, Bovine; conditions: OOX 24 h; for ratio of Bcl-2 to Bax: 132 ng/ml GDF-9, 10% v/v BMP-15 or 35 DO/well
# Procedure: Following culture treatments, OOX complexes were lysed in […] RIPA lysis buffer (10 mM Tris [pH 7.4], 150 mM NaCl, 1 mM EDTA, 1% Trinton X-100 and stored at −80° C., for detection of apoptotic proteins using the sensitive Enhanced Chemiluminescence (ECl) Advance system (Amersham Biosciences, Ontario, Canada). Thawed lysates were mixed with 4× loading buffer containing 100 mM Dithiothretol (DTT) and subjected to SDS-PAGE (12% polyacrylamide gel). Proteins were subsequently electrotransferred to nitrocellulose membranes (Hybond-ECl, Amersham life Science, Ontario, Canada.) in 25 mM Tris-192 mM glycine containing 20% methanol. Blots were blocked in 20 mM Tris (pH 7.6) containing 13.7 mM NaCl, 1% Tween-20, and 2% blocking agent (provided in ECl Advance Kit) for 1 hr at RT, then incubated overnight with Bcl-2 or Bax rabbit polyclonal antibodies (0.35 μg/ml; Santa Cruz Biotechnology, Calif., USA) at 4° C., followed by incubation with horseradish peroxidase-conjugated anti-rabbit antibody (1:200 000; Silemus laboratories, Melbourne, Australia). Images were then scanned using a flat bed scanner and the intensity of Bcl-2 and Bax bands in each sample was quantitated by the ImageJ Imaging System Software version 1.3 (National Institutes of Health, USA).
# This experiment was conducted to confirm that treatment effects on CC apoptosis, as assessed by TUNEL, are concomitant with changes in expression of key proteins regulating cell death and survival. OOX were cultured for 24 h untreated, or treated with 132 ng/ml GDF-9, 10% v/V BMP-15, co-cultured with 35 DO/well, or 10% 293H (control conditioned medium), and then subjected to Western blot for analysis of Bcl-2 and Bax expression.
Molecule,effect on incidence of cumulus cell apoptosis [1],effect on cumulus cell apoptosis ([1]; OOX treated with 100 ng/ml BMP-7 and/or 10% BMP-15),"effect on CC apoptosis, test for additive effect ([1]; OOX treated with DO, 10 ng/ml BMP-6 and/or 10% v/v BMP-15)",ratio of Bcl-2 to Bax [2],expression of Bax protein in CC ([2]; 10% v/v BMP-15 or 35 DO/well),"expression of Bcl-2 protein in CC ([2]; 10% v/v BMP-15 or 35 DO/well, compared to untreated or GDF-9)"
"BMP-15: Recombinant ovine BMP-15 produced in-house in transfected 293H cells, partially purified by hydrophobic interaction chromatography; dosed as % v/v (protein, UniProt Q9MZE2 269-393, looked up) Bone morphogenetic protein 15: QAGSIASEVPGPSREHDGPESNQCSLHPFQVSFQQLGWDHWIIAPHLYTPNYCKGVCPRVLHYGLNSPNHAIIQNLVSELVDQNVPQPSCVPYKYVPISILLIEANGSILYKEYEGMIAQSCTCR",significantly reduced,significantly reduced,significantly (P<0.001) decreased,alter the ratio of Bcl-2 to Bax in favour of cell survival,barely detectable,significantly (P<0.001) higher
"GDF-9: Recombinant mouse GDF-9 produced in-house in transfected 293H cells, partially purified by HIC (protein, UniProt Q07105 307-441, looked up) Growth/differentiation factor …: GQKAIRSEAKGPLLTASFNLSEYFKQFLFPQNECELHDFRLSFSQLKWDNWIVAPHRYNPRYCKGDCPRAVRHRYGSPVHTMVQNIIYEKLDPSVPRPSCVPGKYSPLSVLTIEPDGSIAYKEYEDMIATRCTCR",no significant effect,–,–,no effect,–,–
